Here are results for 2 compounds from publication PMC10243133 (Proceedings of the National Academy of Sciences of the …, 2023).

One assay relates to mutant GLP-1R. Conditions: cited from earlier work.
For assay [1], the target named is GLP-1R endogenously expressed in the rat pancreatic INS-1E β-cell line (rat (endogenous in INS-1E)) (UniProt P32301).
Chain of GLP-1R endogenously expressed in the rat pancreatic INS-1E β-cell line (rat (endogenous in INS-1E)) (P32301 22-463): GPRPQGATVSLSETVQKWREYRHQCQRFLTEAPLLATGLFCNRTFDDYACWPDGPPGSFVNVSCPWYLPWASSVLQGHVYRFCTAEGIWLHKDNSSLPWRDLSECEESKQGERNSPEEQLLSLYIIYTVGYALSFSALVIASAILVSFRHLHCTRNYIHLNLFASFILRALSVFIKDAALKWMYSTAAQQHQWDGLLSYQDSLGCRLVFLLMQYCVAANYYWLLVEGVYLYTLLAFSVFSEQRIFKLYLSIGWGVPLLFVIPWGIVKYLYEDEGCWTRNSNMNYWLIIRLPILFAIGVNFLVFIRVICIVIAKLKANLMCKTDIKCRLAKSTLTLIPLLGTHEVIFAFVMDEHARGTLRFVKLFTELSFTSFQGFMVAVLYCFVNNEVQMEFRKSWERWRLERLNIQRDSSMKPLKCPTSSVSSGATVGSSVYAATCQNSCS

`COc1ccc(Cl)c([C@@H](C)n2cnc3ccc(-c4ccccc4[C@H]4CCCCN4)cc32)c1Cl` [LSN3160440]: the “allosteric activity in GLP-1R binding site mutants” value in the assay with mutant GLP-1R is reported as “only abolished in a triple mutant”.

In assay [1], GLP-1(9-36) (peptide) displayed an EC50 of peptide activity in rat INS-1E cells with 3 μM compound 3-20 (Emax 63%) of 115 nM and an EC50 of peptide activity in rat INS-1E cells with 3 μM compound 3-24 (Emax 60%) of 100 nM.
